Test results reported in the supplement of paper PMC6379048.

Assays:
Assay in all cases: EC50 of free RNA motif oligo competing protein binding to immobilised probe
SYNCRIP = target: T1, SYNCRIP (UniProt O60506)
T1 sequence: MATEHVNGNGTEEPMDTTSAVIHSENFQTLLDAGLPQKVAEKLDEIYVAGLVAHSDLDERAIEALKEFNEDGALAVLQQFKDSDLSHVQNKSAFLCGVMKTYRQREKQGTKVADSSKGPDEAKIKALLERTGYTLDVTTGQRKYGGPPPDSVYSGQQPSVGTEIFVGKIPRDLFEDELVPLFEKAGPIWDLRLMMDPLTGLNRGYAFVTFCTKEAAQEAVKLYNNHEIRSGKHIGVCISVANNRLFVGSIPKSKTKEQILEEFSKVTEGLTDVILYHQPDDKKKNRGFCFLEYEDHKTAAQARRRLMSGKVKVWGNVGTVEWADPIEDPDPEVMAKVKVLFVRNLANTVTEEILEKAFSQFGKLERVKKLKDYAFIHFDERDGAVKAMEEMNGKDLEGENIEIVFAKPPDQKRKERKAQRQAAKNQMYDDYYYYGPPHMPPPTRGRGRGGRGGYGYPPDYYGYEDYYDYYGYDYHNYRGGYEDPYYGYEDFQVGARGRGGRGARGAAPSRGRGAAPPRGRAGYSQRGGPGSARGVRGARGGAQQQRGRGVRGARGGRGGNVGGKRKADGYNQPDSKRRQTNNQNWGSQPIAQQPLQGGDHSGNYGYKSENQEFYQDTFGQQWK
How it was run: (§1)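 Kd was calculated as EC50, taken from a four-parameter log-logistic fit, multiplied by a protein-dependent depletion factor. The assay used HEK293-FT lysate (2.5 mg protein/well) pre-incubated for 1 h at 4°C with free RNA oligos (0 nM to 30 μM), then incubated for 30 min at 4°C with the matching oligos bound through a 5′-amino-C6 linker to NHS-Sepharose beads. Bound proteins were measured by label-free LC-MS/MS and normalised to the control.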

PINX1 = target: T2, PINX1 (UniProt Q96BK5)
T2 sequence: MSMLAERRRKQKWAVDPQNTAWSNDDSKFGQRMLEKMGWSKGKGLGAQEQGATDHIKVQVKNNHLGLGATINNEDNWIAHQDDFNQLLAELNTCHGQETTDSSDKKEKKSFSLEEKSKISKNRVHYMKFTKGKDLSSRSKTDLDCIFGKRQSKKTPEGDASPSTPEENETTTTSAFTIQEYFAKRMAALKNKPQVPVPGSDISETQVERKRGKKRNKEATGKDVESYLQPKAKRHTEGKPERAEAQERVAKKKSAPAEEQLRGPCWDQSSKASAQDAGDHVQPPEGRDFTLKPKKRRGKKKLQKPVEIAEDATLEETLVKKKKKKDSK
How it was run: as §1

SF3B2 = target: T3, SF3B2 (UniProt Q13435)
T3 sequence: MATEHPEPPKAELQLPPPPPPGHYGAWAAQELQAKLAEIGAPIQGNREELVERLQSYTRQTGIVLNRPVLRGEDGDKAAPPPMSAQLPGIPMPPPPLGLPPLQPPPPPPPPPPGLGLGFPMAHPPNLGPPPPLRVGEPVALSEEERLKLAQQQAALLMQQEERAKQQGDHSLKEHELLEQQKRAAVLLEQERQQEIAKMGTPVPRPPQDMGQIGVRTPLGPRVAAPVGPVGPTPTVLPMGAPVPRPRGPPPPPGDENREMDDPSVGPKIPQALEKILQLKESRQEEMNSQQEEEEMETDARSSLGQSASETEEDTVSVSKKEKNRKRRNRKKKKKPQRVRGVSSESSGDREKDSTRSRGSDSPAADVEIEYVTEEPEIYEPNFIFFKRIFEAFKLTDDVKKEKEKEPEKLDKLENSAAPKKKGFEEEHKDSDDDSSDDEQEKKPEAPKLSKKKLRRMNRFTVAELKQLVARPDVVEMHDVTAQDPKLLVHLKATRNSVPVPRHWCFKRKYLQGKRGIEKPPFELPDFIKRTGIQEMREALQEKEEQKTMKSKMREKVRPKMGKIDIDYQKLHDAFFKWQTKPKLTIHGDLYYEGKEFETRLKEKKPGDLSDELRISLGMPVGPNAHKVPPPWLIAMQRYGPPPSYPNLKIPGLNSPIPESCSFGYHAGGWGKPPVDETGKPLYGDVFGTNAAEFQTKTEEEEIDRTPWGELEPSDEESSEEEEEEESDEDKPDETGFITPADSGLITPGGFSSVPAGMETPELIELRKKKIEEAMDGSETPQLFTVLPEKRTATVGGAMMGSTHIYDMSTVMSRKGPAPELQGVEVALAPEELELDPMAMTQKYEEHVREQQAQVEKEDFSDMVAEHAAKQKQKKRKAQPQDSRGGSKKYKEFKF
How it was run: as §1

TIAL1 = target: T4, TIAL1 (UniProt Q01085)
T4 sequence: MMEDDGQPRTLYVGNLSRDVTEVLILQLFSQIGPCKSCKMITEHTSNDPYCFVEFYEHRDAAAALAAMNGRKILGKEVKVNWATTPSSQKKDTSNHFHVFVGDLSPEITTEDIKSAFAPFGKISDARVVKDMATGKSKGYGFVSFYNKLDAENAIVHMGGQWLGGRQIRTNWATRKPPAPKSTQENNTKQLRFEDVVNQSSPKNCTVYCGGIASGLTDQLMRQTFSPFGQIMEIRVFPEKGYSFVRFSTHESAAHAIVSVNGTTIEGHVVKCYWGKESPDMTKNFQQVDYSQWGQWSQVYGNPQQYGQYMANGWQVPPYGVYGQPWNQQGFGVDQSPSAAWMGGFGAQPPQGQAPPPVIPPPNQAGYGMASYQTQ
How it was run: as §1

Sequence AAUAAA has an EC50 (SYNCRIP) of 1.85 µM, an EC50 (PINX1) of 2.13 µM and an EC50 (SF3B2) of 1.18 µM. The EC50 (TIAL1) was 0.546 µM.
